Experimental findings from patent US20210198657A1 (TRUSTEES OF BOSTON COLLEGE, published 2021) are described below.

For this experiment, the target named is T1, human serum albumin (human, UniProt P02768 25-609).
T1 construct: Reagent protein; also called HSA
The experiment is described as follows: fluorescence anisotropy, 500 nM peptide with varied protein concentrations in PBS pH 7.4. As for the experimental part:
FIGS. 16A-16B show further evaluation of the protein-enhanced bacterial staining by KAM5. (A) Flow cytometry comparison of HSA and BSA in enhancing KAM5 binding to S. aureus. (B) Assessing protein binding of KAM5 using fluorescence anisotropy, for which various concentrations of BSA or HSA were delivered to a 96-well plate (Corning 3603) in PBS (pH 7.4). Peptide was added at a final concentration of 500 nM and incubated for 1 hour. Anisotropy values were measured (Ex: 495 nm, Em: 532 nm) and plotted as an average of three trials with standard deviations. Fluorescein was used as a negative control. The results clearly show binding of KAM5 to these serum proteins.
The cell staining ability of KAM5 was also evaluated via fluorescence microscopy with a TAMRA labeled peptide. […] On the contrary, the BSA addition elicited stronger fluorescence staining of the bacteria, consistent with the flow cytometry results (FIG. 2D). […] To better understand this phenomenon, KAM5 was measured binding to these serum proteins via a fluorescence anisotropy experiment (FIGS. 16A-16B). KAM5 did show binding to both BSA and HAS at high protein concentrations, which is perhaps not surprising given these proteins display a large number of surface lysine residues.
On the technique in general: Polarisation of emitted light reports the rotation of a fluorescent probe.

Non-standard residues stand in square brackets, D forms with d. No end group written: not given here. *: point of attachment. APBA‑IA = cysteine S-alkylated with APBA-IA: S-[2-oxo-2-({3-[4-acetyl-3-boronophenoxy]propyl}amino)ethyl]-L-cysteine (Cm), CC(=O)c1ccc(OCCCNC(=O)C*)cc1B(O)O; FAM = 5(6)-carboxyfluorescein, amide on Dap side-chain amine; Dap = NC[C@H](N)C(=O)O

T1 sequence (P02768 25-609 limits assumed): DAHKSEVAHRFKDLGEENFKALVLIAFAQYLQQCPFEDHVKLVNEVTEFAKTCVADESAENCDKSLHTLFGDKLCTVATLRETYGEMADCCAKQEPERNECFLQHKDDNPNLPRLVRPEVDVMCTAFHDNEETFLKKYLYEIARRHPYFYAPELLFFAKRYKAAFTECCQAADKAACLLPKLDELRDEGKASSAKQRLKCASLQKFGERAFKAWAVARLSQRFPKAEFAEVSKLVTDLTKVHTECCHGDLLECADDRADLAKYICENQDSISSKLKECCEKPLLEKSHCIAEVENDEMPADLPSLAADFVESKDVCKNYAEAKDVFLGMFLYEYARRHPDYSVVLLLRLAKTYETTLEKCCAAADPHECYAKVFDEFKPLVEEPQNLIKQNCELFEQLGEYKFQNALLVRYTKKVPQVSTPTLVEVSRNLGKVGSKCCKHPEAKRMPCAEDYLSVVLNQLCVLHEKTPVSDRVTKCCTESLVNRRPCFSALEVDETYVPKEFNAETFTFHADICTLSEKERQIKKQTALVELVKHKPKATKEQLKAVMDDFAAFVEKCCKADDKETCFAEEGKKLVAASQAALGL

Consider AC(APBA‑IA)VSPRSHEC(APBA‑IA)GGG[Dap](FAM)-NH2 [KAM5 (fluorescein/FAM labeled, APBA-IA modified): ACmVSPRSHECmGGGDap*], for which the binding result was “binds”.
